Data as given in PMC11376372.

Tests used:
[1] = molecular target: oxidized wheat protein disulfide isomerase (wPDI^O) (wheat) (UniProt P52589); experiment: ITC; MicroCal VP-ITC; 0.3 mM 1Dx5-NTD^AAA titrated into 70 uM wPDI, 27 additions of 10 uL; 0.5 mM GSSG in both buffers (oxidized wPDI); single-site binding model
[2] = molecular target: reduced wheat protein disulfide isomerase (wPDI^R) (wheat) (UniProt P52589); experiment: ITC; MicroCal VP-ITC; 0.3 mM 1Dx5-NTD^AAA titrated into 70 uM wPDI, 27 additions of 10 uL; 1 mM DTT in both buffers (reduced wPDI); single-site binding model

## 1Dx5-NTD^AAA, triple mutant of the N-terminal domain of HMW glutenin subunit 1Dx5 in which all three cysteines were mutated into alanine (domain or fragment)
[1]
  Kd: 316 µM
[2]
  Kd: 2.59 µM
